Measurements from the supplement of paper PMC10567573.

B1: VENTX (parent)
chain: VFQHHQYLSPLERKRLAREMQLSE
B2: SPSB4 (parent)
chain: LDMDEGTLSFIVDGQYLGVAFRGL

Variants of: B1
Assay: protein stability index of a GFP-peptide fusion (GPS, HEK-293T) (PSI 1-6); higher = more stable
Settings: c terminus: a fixed tail appended
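Also: lentivirally expressed fusions sorted by FACS into six bins by GFP to DsRed ratio, PSI derived from sequencing read proportions per bin multiplied by bin number.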

Protein stability index: each site, then its substitutions
R15: G 2.6, S 1.97, D 2.6, Y 2.04
R18: S 3, W 2.21, V 1.63, L 2.33, F 2.21, K 2.65, P 2.13, G 2.68, E 2.8, H 2.74, A 2.28, D 2.77, I 2.67, M 2.21, Y 2, C 2.58, Q 2.73, T 2.9, N 2.34
K14: T 2.58, Y 2.58, M 3.11, S 2.81, N 2.83, F 1.75, I 2.88, W 1.81, E 3.3, H 1.97, V 2.63, P 2.4, D 3.01, C 2.98, Q 2.12, L 2.19, R 2.67, G 2.39

Variants of: B2
Assay: as above
Settings: c terminus: a fixed tail appended

Protein stability index, by site and new letter:
T7: E 1.31, H 1.94, F 1.81, K 2.03, N 1.23, Y 2.04, I 2.18, G 2.27, W 3.12, L 1.99, P 1.64, A 2.34, S 3.54, M 2.53, D 2.11, V 1.86, Q 3.36, R 1.75
D4: G 2.73, P 1.66, K 2.15, R 2.39, C 1.66, I 3.21, H 3.59, N 1.93, M 3.51, A 1.71, S 2.52, L 4.51, V 2.95, T 2.45, Q 2.4
L8: I 2.43, K 1.47, D 2.21, C 3.35, F 2.3, M 2.72, G 1.76, E 1.94, H 1.55, A 1.27
G6: T 2.32, E 1.98, Y 3.87, Q 3.01, M 2.66, H 2.65, K 2.78, P 1.72, D 1.87, R 2.28, F 2.25, W 2.88, C 3.03, I 2.38, S 4.16, A 3.24, N 3.5
M3: F 2.33, A 2.05, K 2.9, I 1.33, N 1.52, L 3.27, C 2.17, H 2.39, G 2.09, Q 2.68, D 1.59, S 1.77, P 1.74, E 1.42, V 2.67, R 2.68
L1: A 1.83, F 2.48, R 2.09, Y 1.32, W 2.76, I 2.59, Q 1.53, M 2.75, G 1.65, P 1.96, C 3.04, S 1.71, N 1.28, V 2.51, D 1.31, E 1.66, H 2.12, T 1.86, K 1.27
D2: R 2.74, L 2.87, K 1.64, I 2.56, V 2.35, E 2.68, S 2.1, T 3.9, Y 2.74, Q 1.65, H 2.12, W 2.23, P 2.26, A 2.04, M 2.62
E5: Y 2.27, Q 2.7, N 3.71, I 3.72, G 1.85, D 2.77, H 3.53, W 3.01, C 3.63, L 2.51, F 2.59, R 1.9, V 3.95, P 1.42, S 2.79, M 2.56
